In assay [1] the target is T1, HIV-1 YU-2 gp120 (HIV-1 (YU-2), UniProt P35961 32-498). Nature of the assay: ITC. Background: In ITC the heat of successive injections is recorded.
Assay [2] addresses T1, HIV-1 YU-2 gp120. Put plainly: ELISA. A general note: An ELISA detects its analyte on a solid surface through an enzyme-linked reagent.
Assay [3] concerns the target T1, HIV-1 YU-2 gp120. Nature of the assay: ELISA. This is another data set of the same source.

Like-named read-outs stand apart in the source and are kept apart here. Square brackets hold non-standard residues; d marks the D form. Ends that are not written are not given here. Ftp = ferrocenyl-triazole-Pro (made from azidoproline); Cit = NC(=O)NCCC[C@H](N)C(=O)O

By IC50 is commonly meant the point on the concentration scale where inhibition reaches its midpoint. Read a low IC50 as greater potency.

B1: UM41 (peptide)
chain: NI[Ftp]WS-NH2
In the assay with HIV-1 YU-2 gp120 [1], B1 displayed a dH of -25.5 kJ/mol.

B2: UM15 (peptide)
chain: INNI[Ftp]W-NH2
On to B2, for which the dH with HIV-1 YU-2 gp120 [1] is -69.5 kJ/mol.

B3: UM17 (peptide)
chain: NNI[Ftp]W-NH2
Consider B3, for which the values for the IC50 with HIV-1 YU-2 gp120 [2] and with HIV-1 YU-2 gp120 [3] were 0.6 ± 0.05 µM and 4 ± 0.17 µM, respectively. The molecule also returned a dH with HIV-1 YU-2 gp120 [1] of -55.2 kJ/mol.

B4: UM24 (peptide)
chain: [Cit]NNI[Ftp]WS
For B4, the dH in the assay with HIV-1 YU-2 gp120 [1] is -69.9 kJ/mol.

These data come from PMC3035117 (ChemMedChem, 2010).
